Consider six molecules from patent US20210277110A1 (Janssen / Centocor, published 2021).

Substitutions are numbered along the chain they refer to. Read-outs that look alike come from different tables or passages of the source.

Test [1] deals with T1, Full length human TIM-3 on transfected cells (human, UniProt Q8TDQ0 22-301).
T1 construct: also called Human cells
Nature of the test: binding to cells transfected with human TIM-3.

The target in test [2] is T2, recombinant human TIM-3-Fc fusion protein (huTIM-3-Fc) (human, UniProt Q8TDQ0 22-200).
T2 construct: range 22-200; Bought from R&D Systems (NS0-derived); Deglycosylated for HDX-MS; also called recombinant human Fc-TIM-3 chimera; TIM-3 IgG1 Fc Chimera; not shown: IgG1 Fc of the bought chimera
Nature of the test: competition ELISA on coated Fc-TIM-3, competitor galectin-9.

Test [3] concerns the target T3, cyno TIM-3 on transfected cells (cyno, UniProt A0A2K5U3G7 22-294).
T3 construct: whole, on cells; also called Cyno cells
T3 sequence: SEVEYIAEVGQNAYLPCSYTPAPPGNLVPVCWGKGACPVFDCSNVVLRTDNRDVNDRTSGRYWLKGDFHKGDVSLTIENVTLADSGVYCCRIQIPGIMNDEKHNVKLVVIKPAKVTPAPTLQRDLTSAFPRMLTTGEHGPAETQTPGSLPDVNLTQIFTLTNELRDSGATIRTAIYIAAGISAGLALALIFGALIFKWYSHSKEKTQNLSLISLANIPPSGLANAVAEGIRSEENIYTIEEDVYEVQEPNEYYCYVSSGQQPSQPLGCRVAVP
Nature of the test: binding to cells transfected with cyno TIM-3.

Test [4] concerns the target T4, Extracellular domain of human PD1 (huPD1-ECD) (human, UniProt Q15116 25-169, biotinylated in the ligand inhibition assay (sites not given)).
T4 construct: Expressed with a hexahistidine tag or as Fc fusion; also called biotinylated PD-1
Nature of the test: SPR ProteOn, captured mAb, huPD1-ECD analyte; approximation (chi2 > 20%).

Test [5] has as its target T4, Extracellular domain of human PD1 …. Nature of the test: MSD ligand inhibition, competitor coated cynoPDL1-ECD.
Procedure: The ligand inhibition assay design was MSD (Mescoscale Discovery) based. A MSD plate was directly coated with ligand (cynoPDL1-ECD, huPDL1-ECD or huPDL2-ECD) and incubated overnight at 4° C. The following day, the coating solution was removed and the plate was blocked. […] Depending on the panel of antibodies to be tested, the antibodies were tested as titrations or at a fixed concentration. […] The mAbs that were positive for inhibition of ligand binding at one concentration were also tested in dose responses for inhibition of various PD-1 ligands.
Select Fabs were cloned as IgG2sigma isotype and characterized for their Jurkat cell binding and cynomolgus PD-L1 ligand inhibition at concentrations 1 μg/ml and 10 μg/ml.
Test [6] addresses T5, Full length human PD1 (huPD1) on cells (human, UniProt Q15116 25-288).
T5 construct: on T cells of human donors in the MLR and CMV assays (functional); also called PD-1 on Jurkat cells
Nature of the test: flow cytometry, PHA-stimulated Jurkat cells.

The target in test [7] is T4, Extracellular domain of human PD1 …. Nature of the test: SPR ProteOn, captured mAb, huPD1-ECD analyte.
The target of test [8] is T6, Extracellular domain of cyno PD1 (cPD1-ECD) (Macaca fascicularis (cynomolgus)).
T6 construct: Expressed with a hexahistidine tag or as Fc fusion; also called cynoPD1-ECD; cynoPD-1-ECD
T6 chain: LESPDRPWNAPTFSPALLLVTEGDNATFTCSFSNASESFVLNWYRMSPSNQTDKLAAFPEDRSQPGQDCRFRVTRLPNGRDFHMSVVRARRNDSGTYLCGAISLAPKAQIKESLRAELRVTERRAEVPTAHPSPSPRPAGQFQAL
Nature of the test: SPR ProteOn, cynoPD1-ECD; RANGE low replicate.
Procedure: (§1) Affinity measurements using Surface Plasmon Resonance (SPR) were performed using a ProteOn XPR36 system. A biosensor surface was prepared by coupling a mixture of anti-IgG Fc modified alginate polymer layer surface of a GLC chip using the manufacturer instructions for amine-coupling chemistry. […] The collected data were processed and fitted to a Langmuir 1:1 binding model. The result for each mAb was reported in the format of kₒₙ (On-rate), koff (Off-rate) and KD (equilibrium dissociation constant).
(§2) STDEV were calculated for 3 or more replicates generated for human and cyno proteins. If less than 3 replicates were calculated, RANGE was indicated. RANGE is defined as the low and high values for the replicates tested. For samples in the Table 10 or Table 11 without value indicated in RANGE or STDEV, only one experiment was performed.

Test [9] concerns the target T6, Extracellular domain of cyno PD1 …. Nature of the test: SPR ProteOn, cynoPD1-ECD; RANGE high replicate.
Procedure: as §1, §2
Test [10] has the same target. Nature of the test: SPR ProteOn, cynoPD1-ECD; RANGE high replicate; RANGE high replicate.
Test [11] has the same target. Description: SPR ProteOn, captured mAb, cynoPD1-ECD analyte.
Procedure: as §1, §2
For test [12] the target is unchanged. Description: SPR ProteOn, captured mAb, cynoPD1-ECD analyte.
Procedure: as §1
(§3) STDEV were calculated for 3 or more replicates generated for human and cyno proteins. If less than 3 replicates were calculated, RANGE is indicated. RANGE is defined as the low and high values for the replicates tested. For samples without RANGE or STDEV, only one experiment was performed
Test [13] addresses T4, Extracellular domain of human PD1 …. Description: SPR ProteOn, huPD1-ECD; RANGE high replicate; RANGE high replicate.
Procedure: as §1, §3
Test [14] shares this target. Description: SPR ProteOn, captured mAb; antigen species not given.
Test [15] shares this target. Description: SPR ProteOn, huPD1-ECD; RANGE high replicate.
Procedure: as §1, §3
Test [16] addresses T6, Extracellular domain of cyno PD1 …. Description: SPR ProteOn, cynoPD1-ECD; RANGE high replicate.
Procedure: as §1, §3
For test [17], the target named is T4, Extracellular domain of human PD1 …. Nature of the test: MSD ligand inhibition, competitor coated cynoPDL1-ECD. The source holds these as a separate data set.
Procedure: (§4) The ligand inhibition assay design was MSD (Mescoscale Discovery) based. A MSD plate was directly coated with ligand (cynoPDL1-ECD, huPDL1-ECD or huPDL2-ECD) and incubated overnight at 4° C. The following day, the coating solution was removed and the plate was blocked. […] Depending on the panel of antibodies to be tested, the antibodies were tested as titrations or at a fixed concentration.
For test [18] the target is unchanged. Description: SPR ProteOn, huPD1-ECD; RANGE low replicate.
Procedure: as §1, §3
Test [19] shares this target. Nature of the test: MSD ligand inhibition, competitor coated huPDL2-ECD.
Procedure: as §4
For test [20], the target named is T6, Extracellular domain of cyno PD1 …. Nature of the test: SPR ProteOn, cynoPD1-ECD; RANGE low replicate.
Procedure: as §1, §3
Test [21] deals with T4, Extracellular domain of human PD1 …. Description: MSD ligand inhibition, competitor coated huPDL1-ECD.
Procedure: as §4
Test [22] concerns the target T6, Extracellular domain of cyno PD1 …. Nature of the test: SPR ProteOn, cynoPD1-ECD; RANGE high replicate; RANGE high replicate.
Procedure: as §1, §3
The target of test [23] is T5, Full length human PD1 (huPD1) on cells. Nature of the test: flow cytometry, PHA-stimulated Jurkat cells. This is another data set of the same source.
Procedure: Jurkat cells were stimulated overnight with 20 ng/ml of PHA, harvested, washed, and checked for viability. The cells were then incubated at 6-10° C. for 45-60 minutes with various concentrations of test antibodies, washed and incubated at 6-10° C. for 45-60 minutes with FITC-labeled goat anti-human IgG. The cells were washed and fixed with BD Cytofix, refrigerated overnight and analyzed on a MACSQuant flow cytometer. The percentage of PD-1 positive cells at each antibody concentration was plotted vs log of the antibody concentration and EC₅₀ values were generated in Prism.
In test [24] the target is T4, Extracellular domain of human PD1 …. Description: SPR ProteOn, captured mAb, huPD1-ECD analyte. This is another data set of the same source.
Procedure: as §1, §3
The target of test [25] is T5, Full length human PD1 (huPD1) on cells. Description: cell-based or functional assay.
The target of test [26] is T6, Extracellular domain of cyno PD1 …. Nature of the test: SPR ProteOn, cynoPD1-ECD; RANGE low replicate; RANGE low replicate.
Procedure: as §1, §3

T5 sequence (Q15116 25-288 limits assumed): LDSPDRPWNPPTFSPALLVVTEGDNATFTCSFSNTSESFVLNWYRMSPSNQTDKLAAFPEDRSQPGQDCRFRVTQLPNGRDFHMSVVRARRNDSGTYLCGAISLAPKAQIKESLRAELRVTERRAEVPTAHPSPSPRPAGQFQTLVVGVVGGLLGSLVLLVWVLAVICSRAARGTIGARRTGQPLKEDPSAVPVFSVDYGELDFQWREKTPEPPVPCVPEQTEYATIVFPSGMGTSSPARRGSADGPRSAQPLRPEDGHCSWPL
T4 sequence (Q15116 25-169 limits assumed): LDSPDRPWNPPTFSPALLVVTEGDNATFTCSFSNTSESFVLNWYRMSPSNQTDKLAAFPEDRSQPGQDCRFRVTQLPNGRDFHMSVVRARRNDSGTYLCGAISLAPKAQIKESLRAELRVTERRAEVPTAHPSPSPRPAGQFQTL

B1: TM3B190 (antibody, V domains shown)
VH: DVQLQESGPGLVKPSQSLSLTCTVTGYSITSDYAWNWIRQFPGNKLEWMGYINYSGRTSYNPSLKSRISITRDTSKNQFFLQLNSVTTEDTATYYCTSGGNFDYWGQGTTLTVSS
VL: DIVMTQSPSSMSASLGDRITITCQATQDIVKNLNWYQQKPGKPPSFLIHYVTELAEGVPSRFSGSGSGSDYSLTISNLESEDFADYYCLQFYEFPLTFGAGTKLELK
notes: Mouse-derived variable domains; also called TM3H96/TM3L62
Take B1: the EC50 in test [1] worked out at 0.35 µg/mL; in test [3], 0.08 µg/mL. For the same molecule, the “Galectin 9 Inhibition, % inhibition (maximal)” value in [2] stood at 60.7%.

B2: TM3B189 (antibody, V domains shown)
VH: EVQLQQSGPELLKPGASVKMSCKASGYTFTSYVMYWVKQKPGQGLEWIGYINPYNDGTKYNEKFKGKATLTSDKSSSTAYMELSRLTSEDSAVYYCTRDDYDVAPFAYWGQGTLVTVSA
VL: DIVLTQSPASLAVSLGQRATISCRASESLDSYGNSYIHWYQQKPGQPPKLLIYLASNLESGVPARFSGSGSKTDFTLTIDPVEADDPATYYCQQNNEDPFTFGSGTKLEIK
notes: Mouse-derived variable domains; also called TM3H141/TM3L61
Take B2: the half-maximal effective concentration (EC50) turned out to be 0.74 µg/mL in test [1] and 0.19 µg/mL in test [3]. For the same molecule, the “Galectin 9 Inhibition, % inhibition (maximal)” value in [2] was 76.4%.

B3: PD1B149 (antibody, human IgG2, kappa, V domains shown)
VH: QVQLVQSGAEVKKPGSSVKVSCKASGGTFSSYAISWVRQAPGQGLEWMGGIIPIFGTANYAQKFQGRVTITADESTSTAYMELSSLRSEDTAVYYCARPGLAAAYDTGNLDYWGQGTLVTVSS
VL: EIVLTQSPATLSLSPGERATLSCRASQSVRNYLAWYQQKPGQAPRLLIHDASNRATGIPARFSGSGSGTDFTLTISSLEPEDFAVYYCQQRNYWPLTFGQGTKVEIKR
notes: IgG2sigma/kappa; VH 41, VL 50; also called PD1H24/PD1L128
For B3, the dissociation constant (Kd) in test [4] was approximately 12 nM; in test [8], 10.9 nM; in [9] it was 11.4 nM; in test [11] it was 11.2 nM. The “percentage ligand not blocked at 1 µg/ml” value in test [5] was 7%. Further, the “percentage ligand not blocked at 10 µg/ml” value in test [5] is 7%. Moreover, in [6], the 50% effective concentration (EC50) amounted to 0.08 µg/mL. In addition, the koff is 0.0062 s⁻¹ in test [7], 0.00348 s⁻¹ in [8], 0.00365 s⁻¹ in test [10] and 0.00357 s⁻¹ in test [11]. The kon came to 532000 M⁻¹ s⁻¹ in [7], 304000 M⁻¹ s⁻¹ in test [8], 336000 M⁻¹ s⁻¹ in [10] and 320000 M⁻¹ s⁻¹ in [11].

B4: TM3B105 (antibody, human IgG2, kappa, V domains shown)
VH: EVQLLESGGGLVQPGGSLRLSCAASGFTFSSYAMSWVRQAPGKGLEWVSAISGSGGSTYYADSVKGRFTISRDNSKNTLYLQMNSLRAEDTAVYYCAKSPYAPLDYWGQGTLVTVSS
VL: B3 VL with R30N, N31D, H49Y, R91G, N92G, Y93H, W94A, L96I
notes: IgG2sigma/kappa; VH 146, VL 156; also called TM3H24/TM3L33
For the molecule B4, the half-maximal effective concentration (EC50) in test [1] stood at 0.46 µg/mL; in test [3] it was 0.03 µg/mL. Besides, the “Galectin 9 Inhibition, % inhibition (maximal)” value in test [2] amounted to 69.8%.

B5: PD1B71 (antibody, V domains shown)
VH: QVQLVQSGAEVKKPGSSVKVSCKASGGTFSSYAISWVRQAPGQGLEWMGGIIPIFGTANYAQKFQGRVTITADESTSTAYMELSSLRSEDTAVYYCARGTLDRTGHLDYWGQGTLVTVSS
VL: EIVLTQSPATLSLSPGERATLSCRASQSVSSYLAWYQQKPGQAPRLLIYDASNRATGIPARFSGSGSGTDFTLTISSLEPEDFAVYYCQQRSNWPLTFGQGTKVEIK
notes: Tested as IgG2sigma/kappa; also called PD1H108/PH9L3
With B5, the dissociation constant Kd in [12] came to 52 nM; in test [14] it was 120 nM; in test [15], 24.7 nM; in [16] it was 61.4 nM; in [18], 22.4 nM; in [7], 49.9 nM. Further, the Kd was 44.4 nM in test [20], 66.8 nM in test [11] and 23.5 nM in test [24]. Besides, the koff in [12] was 0.0196 s⁻¹; in test [13], 0.023 s⁻¹; in test [14], 0.0277 s⁻¹; in test [18], 0.0219 s⁻¹; in test [7], 0.0273 s⁻¹; in test [20], 0.0185 s⁻¹. The figures for the off-rate (koff) in test [11], in test [22] and in test [24] were 0.0203 s⁻¹, 0.0207 s⁻¹ and 0.0225 s⁻¹, respectively. Moreover, the kon in test [12] was determined as 377000 M⁻¹ s⁻¹; in test [14], 231000 M⁻¹ s⁻¹; in [15], 976000 M⁻¹ s⁻¹; in test [18], 933000 M⁻¹ s⁻¹; in [7] it was 548000 M⁻¹ s⁻¹; in [20] it was 337000 M⁻¹ s⁻¹. For the same molecule, the kon in test [11] worked out at 304000 M⁻¹ s⁻¹; in test [22], 417000 M⁻¹ s⁻¹; in [24], 955000 M⁻¹ s⁻¹. For the same molecule, the concentration for half-maximal inhibition (IC50) in test [17] is 0.014 to 0.015 µg/mL; in [19], 0.035 µg/mL; in test [21] it was 0.024 µg/mL. Further, in test [5], the “percentage ligand not blocked at 1 µg/ml” value was 6%. Further, the “percentage ligand not blocked at 10 µg/ml” value in [5] stood at 9%. For the same molecule, the EC50 in test [6] is 0.13 µg/mL; in [23] it was 0.13 to 0.47 µg/mL.

B6: PD1B195 (antibody, V domains shown)
VH: B3 VH with G56D, N109S
VL: B5 VL with S30D, S92E, N93Y
notes: also called PD1H170/PD1L67
In the case of B6, in test [25], the “CMV EC50, nM (IFN-γ induction)” value is 1.64 nM. Besides, the dissociation rate constant (koff) came out at 0.000396 s⁻¹ in test [26], 0.000408 s⁻¹ in test [12], 0.000419 s⁻¹ in [22] and 0.00152 s⁻¹ in test [24]. For the same molecule, the equilibrium dissociation constant (Kd) in test [12] worked out at 0.94 nM; in test [16] it was 0.97 nM; in [20] it was 0.91 nM; in test [24] it was 1.23 nM. The kon in test [12] is 432000 M⁻¹ s⁻¹; in test [16], 434000 M⁻¹ s⁻¹; in test [20] it was 430000 M⁻¹ s⁻¹; in test [24] it was 1.23e+06 M⁻¹ s⁻¹.
